B1: library; numbered along this chain (parent)
chain: MAAAGGARLLRAASAVLGGPAGRWLHHAGSRAGSSGLLRNRGPGGSAEASRSLSVSARARSSSEDKITVHFINRDGETLTTKGKVGDSLLDVVVENNLDIDGFGACEGTLACSTCHLIFEDHIYEKLDAITDEENDMLDLAYGLTDRSRLGCQICLTKSMDNMTVRVPETVADARQSIDVGKTS

This data set covers variants of B1. Put plainly: scaled log2 fold change in cell abundance, elesclomol vs control (0 = silent mean, 1 = nonsense mean) (scaled log2 ratio); higher = higher viability under elesclomol (loss of FDX1 cuproptosis function). The following applies: glucose 10 mM. The protocol:
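Deep mutational scan of full-length human FDX1: a pooled saturation-mutagenesis ORF library (every residue 2-184 mutated to all 19 amino acids plus stop, and silent codons where available) was expressed by lentivirus in FDX1-knockout ABC1 (14 days) or HEK293T (11 days) cells grown with elesclomol (ES) or DMSO control. Variant abundance came from ORF sequencing. The log2 fold change (ES vs control, mean of duplicates) was centred on the silent-variant mean (0) and scaled to the nonsense-variant mean (1). Higher values mean greater viability under ES, i.e. loss of FDX1 function in cuproptosis.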

[1] abbreviates: with ABC1 FDX1 KO, elesclomol 5 nM, 14 days.
The mark [2] stands for this setting: with HEK293T FDX1 KO, elesclomol 40 nM, 11 days.
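Further: variant abundance is its share of total variant reads in each endpoint sample, from next-generation sequencing of the integrated ORF PCR-amplified out of genomic DNA.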

On to P20W, for which the “scaled log2 fold change” value under setting [1] is -0.19 and the “scaled log2 fold change” value under setting [2] was -0.657. The corresponding values for P20L are 0.585 and -0.772. With P20K, the “scaled log2 fold change” value under setting [1] was found to be 0.251. As to P20H, the “scaled log2 fold change” value was -0.216 under setting [1] and 0.0304 under setting [2]. The corresponding values for P20A are -0.601 and 0.0404. Turning to P20C, the “scaled log2 fold change” value was 0.163 under setting [1] and -0.287 under setting [2]. In the case of P20D, the “scaled log2 fold change” value under setting [1] was -0.0903. Regarding P20I, the “scaled log2 fold change” value by setting is: under setting [1], 0.419; under setting [2], 0.171. For P20E, in that order: 0.162 and 1.08. As to P20T, under setting [1], the “scaled log2 fold change” value was determined as 0.221.

In the case of P20F, the “scaled log2 fold change” value under setting [1] was -0.201. Take P20G: the “scaled log2 fold change” value under setting [1] is 0.37.

For P20Q, the “scaled log2 fold change” value is, setting by setting: under setting [1], -0.5; under setting [2], 1.13.

Consider P20M, for which, under setting [1], the “scaled log2 fold change” value was -0.56. Consider P20S, for which the “scaled log2 fold change” value under setting [1] is -0.324. For P20N, under setting [1], the “scaled log2 fold change” value is -0.129.

As to P20Y, the “scaled log2 fold change” value reads like this: under setting [1], 0.0978; under setting [2], 0.987. For S14V, the “scaled log2 fold change” value under setting [1] was determined as 0.113. The same measure, in the same setting: the result for S14Q reads -0.469.

S14W: the “scaled log2 fold change” value runs as follows: under setting [1], -0.0995; under setting [2], -0.0707. As to S14T, the “scaled log2 fold change” value under setting [1] is -0.472.

On to S14M, for which the “scaled log2 fold change” value runs as follows: under setting [1], 0.348; under setting [2], 0.298. In the case of S14F, the “scaled log2 fold change” value under setting [1] is -0.657. On to S14E, for which the “scaled log2 fold change” value was found to be 0.366 under setting [1] and 0.442 under setting [2]. Take S14H: the “scaled log2 fold change” value under setting [1] is -0.573. In the case of S14A, the “scaled log2 fold change” value is, setting by setting: under setting [1], 0.422; under setting [2], 0.495. Turning to S14P, the “scaled log2 fold change” value under setting [1] stood at 0.707. Take S14D: under setting [1], the “scaled log2 fold change” value amounted to 0.306. In the case of S14G, the “scaled log2 fold change” value under setting [1] turned out to be 0.603. On to S14Y, for which the “scaled log2 fold change” value by setting is: under setting [1], 0.283; under setting [2], 0.523. Turning to S14L, the “scaled log2 fold change” value was -0.903 under setting [1] and 0.688 under setting [2]. The corresponding values for S14I are -0.891 and -0.397. As for S14R, under setting [1], the “scaled log2 fold change” value amounted to 0.602.

On to S14C, for which the “scaled log2 fold change” value is 0.43 under setting [1] and -0.264 under setting [2].

Take S14K: the “scaled log2 fold change” value reads like this: under setting [1], -0.193; under setting [2], 0.475. As to W24M, the “scaled log2 fold change” value by setting is: under setting [1], 0.24; under setting [2], -0.653.

Consider W24H, for which the “scaled log2 fold change” value reads like this: under setting [1], 0.42; under setting [2], -0.545.

As for W24N, the “scaled log2 fold change” value reads like this: under setting [1], -0.222; under setting [2], 0.318.

As to W24C, the “scaled log2 fold change” value was 0.00637 under setting [1] and -0.0787 under setting [2]. As to W24K, the “scaled log2 fold change” value by setting is: under setting [1], -0.318; under setting [2], -0.743. The corresponding values for W24Q are -0.175 and 0.364. Turning to W24I, the “scaled log2 fold change” value under setting [1] was -0.0623. Turning to W24L, under setting [1], the “scaled log2 fold change” value was 0.45. With W24E, the “scaled log2 fold change” value was 0.458 under setting [1] and -0.438 under setting [2]. Turning to W24F, the “scaled log2 fold change” value is, setting by setting: under setting [1], 0.286; under setting [2], 0.448.

For A12G, the “scaled log2 fold change” value is, setting by setting: under setting [1], 0.259; under setting [2], -0.297. As for A12C, the “scaled log2 fold change” value is 0.0882 under setting [1] and 0.2 under setting [2].

Regarding A12Q, the “scaled log2 fold change” value is, setting by setting: under setting [1], 0.144; under setting [2], 0.91. Regarding A12I, the “scaled log2 fold change” value under setting [1] was 0.306 and the “scaled log2 fold change” value under setting [2] is -0.67.

Consider A12K, for which the “scaled log2 fold change” value is 0.0242 under setting [1] and -0.213 under setting [2]. The corresponding values for A12N are -0.0628 and 0.996.

For the variant A12L, the “scaled log2 fold change” value reads like this: under setting [1], 0.128; under setting [2], -0.0278. On to A12D, for which the “scaled log2 fold change” value by setting is: under setting [1], 0.231; under setting [2], 0.265.

Consider A12Y, for which the “scaled log2 fold change” value was 0.376 under setting [1] and 0.577 under setting [2]. For A12F, in that order: 0.00609 and -0.148. As for A12S, the “scaled log2 fold change” value stood at 0.0823 under setting [1] and 1.03 under setting [2]. The corresponding values for A12P are -0.154 and -0.436.

Turning to A12V, the “scaled log2 fold change” value under setting [1] was 0.373. On to A12E, for which the “scaled log2 fold change” value came out at 0.118 under setting [1] and 0.751 under setting [2]. Consider A12R, for which the “scaled log2 fold change” value under setting [1] was -0.455 and the “scaled log2 fold change” value under setting [2] was determined as 0.571. For the variant A12M, the “scaled log2 fold change” value is, setting by setting: under setting [1], -0.178; under setting [2], -0.222. With A12T, the “scaled log2 fold change” value reads like this: under setting [1], -0.00479; under setting [2], -0.247.

As to A12H, the “scaled log2 fold change” value reads like this: under setting [1], 0.526; under setting [2], 0.197. On to A12W, for which, under setting [1], the “scaled log2 fold change” value was 0.171. R11K: the “scaled log2 fold change” value amounted to 0.0892 under setting [1] and 1.03 under setting [2].

The values are drawn from the supplement of paper PMC12855868.
